# Assay results reported in patent US6818657B1, “Bioprecursors of a retinoic derivative and pharmaceutical and/or cosmetic compositions” (Pierre Fabre Dermo-Cosmetique, priority 1999, dated 2004).
# B1: recombinant β-glucocerebrosidase (Homo sapiens) (protein)
# chain: ARPCIPKSFGYSSVVCVCNATYCDSFDPPTFPALGTFSRYESTRSGRRMELSMGPIQANHTGTGLLLTLQPEQKFQKVKGFGGAMTDAAALNILALSPPAQNLLLKSYFSEEGIGYNIIRVPMASCDFSIRTYTYADTPDDFQLHNFSLPEEDTKLKIPLIHRALQLAQRPVSLLASPWTSPTWLKTNGAVNGKGSLKGQPGDIYHQTWARYFVKFLDAYAEHKLQFWAVTAENEPSAGLLSGYPFQCLGFTPEHQRDFIARDLGPTLANSTHHNVRLLMLDDQRLLLPHWAKVVLTDPEAAKYVHGIAVHWYLDFLAPAKATLGETHRLFPNTMLFASEACVGSKFWEQSVRLGSWDRGMQYSHSIITNLLYHVVGWTDWNLALNPEGGPNWVRNFVDSPIIVDITKDTFYKQPMFYHLGHFSKFIPEGSQRVGLVASQKNDLDAVALMHPDGSAVVVVLNRSSKDVPLTIKDPAVGFLETISPGYSIHTYLWRRQ
# notes: histidine tail (His tag) (C); made in house
# Substrate: CC1=C(/C=C/C(C)=C/C=C/C(C)=C/C(=O)Oc2ccc(O[C@@H]3OC(CO)[C@@H](O)C(O)C3O)cc2)C(C)(C)CCC1
# Test: Michaelis constants (Km) and Vm of recombinant β-glucocerebrosidase for pseudosubstrates
# Type: biochemical
# Conditions: other: phthalate buffer pH 5.6 (0.025 M), taurocholate 5 mM, purified β-glucocerebrosidase, 30 minutes incubation, HPLC assay
# Procedure: After confirming that β-glucocerebrosidase is expressed in the keratinocytes, we produced a recombinant enzyme in the baculovirus system. A histidine tail was added to the COOH end of the protein to allow it to be purified by affinity column chromatography.
# Thus, we were able to determine the Michaelis constants (Km) and the Vm values of the recombinant β-glucocerebrosidase in particular for the retinoic acid-arbutin glucoconjugate. The kinetics measurements are carried out in a phthalate buffer at pH 5.6 (0.025 M) containing taurocholate (5 mM), purified β-glucocerebrosidase and the test conjugate at various concentrations. The incubation lasts 30 minutes and the amount of hydroquinone-retinoic acid conjugate released is assayed by HPLC. The table below gives the results obtained. […] As regards their rates of hydrolysis, these are lower and thus allow effects to be obtained over time.
protein,measurement,value
B1,Km,5 ± 1.2 µM
same,Vmax,235 ± 19 nmol/h/mg
